Test results: patent US20150239975A1 (KOREA RESEARCH INSTITUTE OF BIOSCIENCE AND BIOTECHNOLOGY, published 2015)

Biological target: T1, transmembrane 4 L six family member 5 (TM4SF5) protein (human, UniProt O14894 1-197)
T1 sequence (looked up): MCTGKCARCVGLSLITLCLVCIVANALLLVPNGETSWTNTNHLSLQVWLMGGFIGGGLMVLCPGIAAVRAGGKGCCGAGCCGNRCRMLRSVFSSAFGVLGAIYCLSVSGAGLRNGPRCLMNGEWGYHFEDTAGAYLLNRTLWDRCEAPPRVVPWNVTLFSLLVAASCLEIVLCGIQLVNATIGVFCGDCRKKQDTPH
Assay: cell-based or functional assay

B1: monoclonal antibody #27 (scFv-Fc form) (Fc fusion, not shown: a dimerising Fc or GST)
scFv: QVQLQQFGAELVRPGASVTLSCKASGYTFTDYEMHWVKQTPVHGLEWIGAIDPETGGTAYNQKFKGKAILTADKSSSTAYMELRSLTSEDSAVYYCTRPYLGYWGQGTTVTVSSADAVVTQTPLSLPVSLGDQASISCRSSQSLVHSNGNTYLHWYLQKPGQSPKLLIYKVSNRFSGVPDRFSGSGSGTDFTLKISRVEAEDLGVYYCFQGSHIPLTFGAGTKLELK
inhibition of invasion of TM4SF5-overexpressing liver cancer cells (Tp), transwell assay, 20 µg/mL antibody: 56%

B2: monoclonal antibody #88 (scFv-Fc form) (Fc fusion, not shown: a dimerising Fc or GST)
scFv: QVQLQQFGAELVRPGASVKLSCKASGYTFTDYEMHWVKQTPVHGLEWIGAIDPETGGTAYNQKFKGKATLTADKSSSTAYMELRSLTSEDSAVYYCTPNYWYFDVWGAGTSVTVSSADAVVTQTPLSLPVSLGDQASISCRSSQSLVHSNGNTYLHWYLQKPGQSPKLLIYKVSNRFSGVPDRFSGSGSGTDFTLKISRVEAEDLGVYFCSQSTHVPYTFGGGTKLELK
inhibition of growth of TM4SF5-overexpressing liver cancer cells (Tp, T16) in the absence of serum, 20 µg/mL antibody: ~50%
inhibition of infiltration of TM4SF5-overexpressing liver cancer cells (Tp), transwell assay, 20 µg/mL antibody: 73%

B3: monoclonal antibody #92 (scFv-Fc form) (Fc fusion, not shown: a dimerising Fc or GST)
scFv: EVQLQQSVADLVRPGASVKLSCTASGFNIENTYMHWVKQRPEQGLEWIGRIDPANGNTKYAPKFQDKATITADTSSNTAYLQLSSLTSEDTAVYYCTSLGAYWGQGTLVTVSAADAVLTQTPLSLPVSLGDQASISCRSSQSIVHSNGNTYLEWYLQKPGQSPKLLIYKVSNRFSGVPDRFSGSGSGTDFTLKISRVEAEDLGVYFCSQSTHVPLTFGAGTKLEIK
inhibition of growth of TM4SF5-overexpressing liver cancer cells (Tp, T16) in the absence of serum, 20 µg/mL antibody: ~50%
inhibition of infiltration of TM4SF5-overexpressing liver cancer cells (Tp), transwell assay, 20 µg/mL antibody: 46%

B4: monoclonal antibody #1 (scFv-Fc form) (Fc fusion, not shown: a dimerising Fc or GST)
scFv: EVQLQQFGAELVRPGASVTLSCKASGYTFTDYEMHWVKQTPVHGLEWIGAIDPETGGTAYNQKFKGKAILTADKSSSTAYMELRSLTSEDSAVYFCARLTLFYGNYDWPFDVWGTGTSVTVSSADIVMTQSQKFMSTSVGDRVSITCKASQNVRTAVAWYQQKPGQSPKLLIYWASTRHTGVPDRFTGSGSGTDFTLTISNVQSEDLADYFCQQYSSYPFTFGSGTKLEIK
inhibition of invasion of TM4SF5-overexpressing liver cancer cells (Tp), transwell assay, 20 µg/mL antibody: 83%

B5: monoclonal antibody #79 (scFv-Fc form) (Fc fusion, not shown: a dimerising Fc or GST)
scFv: GVQLQQSGAELVRPGASVKLSCKASGYTFTDYEMHWVKQTPVHGLEWIGAIDPETGGTAYNQKFKGKAILTADKSSSTAYMELRSLTSEDSAVYYCTVYGLAYWGQGTLVTVSAADVVMTQTPLSLPVSLGDQASISCRSSQSLVHSNGNTYLHWYLQKPGQSPKLLIYKVSNRFSGVPDRFSGSGSGTDFTLKISRVEAEDLGVYFCSQNTHVPYTFGGGTKLELK
inhibition of invasion of TM4SF5-overexpressing liver cancer cells (Tp), transwell assay, 20 µg/mL antibody: 49%
